What was measured:
[1] = in vitro release study of PADM in human plasma; format: in vitro ADME; details: over 6-7 h in human plasma
From the text: (§1) Activated CB cleaves the Phe-Lys dipeptide at the Lys-PABC bond. Then, the exposed PABC spacer spontaneously decarboxylates upon deacylation and free ADM molecules are released.

Cathepsin B (CB) = Cathepsin B (CB) (Homo sapiens, UniProt P07858); experiment: in vitro release study of PADM in CB solution; format: biochemical; details: 37° C., read-out: half-life of ADM release
From the text: as §1

SMILES: COc1cccc2c1C(=O)c1c(O)c3c(c(O)c1C2=O)C[C@@](O)(C(=O)CO)C[C@@H]3O[C@H]1C[C@H](NC(=O)OCc2ccc(NC(=O)[C@H](CCCCN)NC(=O)[C@H](Cc3ccccc3)NC(C)=O)cc2)[C@H](O)[C@H](C)O1 [PADM, Ac-Phe-Lys-PABC-ADM]
- changes (ADM release) in human plasma [1]: no changes were observed
- half-life (Cathepsin B (CB)): 16 min
